Laboratory results as given in PMC4676636, “Aptamers Binding to c-Met Inhibiting Tumor Cell Migration”.

Legend:
[1] = biological target: T1, human c-Met-Fc (c-Met ectodomain, IgG1-Fc fusion) (Homo sapiens, UniProt P08581 25-932); test: competition; vs 32P-CLN64-T; Dotblot: nitrocellulose filter, 37 C (competition, 30 min); BLI: DPBS, 37 C, Protein A tips, 1:1 fit; ELISA: PBS/1% BSA; flow cytometry: PBS/1% BSA, 4 C, 30 min; settings: protein: recombinant; tags: Fc (IgG1); chain copies: 2; 3'-biotin (CLN-F-B, cells)
[2] = biological target: T1, human c-Met-Fc (c-Met ectodomain, …); test: filter binding (dotblot); Dotblot: nitrocellulose filter, 37 C (competition, 30 min); BLI: DPBS, 37 C, Protein A tips, 1:1 fit; ELISA: PBS/1% BSA; flow cytometry: PBS/1% BSA, 4 C, 30 min; settings: protein: recombinant; tags: Fc (IgG1); chain copies: 2; label: 32P (dotblot)
[3] = biological target: T1, human c-Met-Fc (c-Met ectodomain, …); test: competition ELISA; competes with immobilized HGF; Fig 2 legend gives 72 nM; Dotblot: nitrocellulose filter, 37 C (competition, 30 min); BLI: DPBS, 37 C, Protein A tips, 1:1 fit; ELISA: PBS/1% BSA; flow cytometry: PBS/1% BSA, 4 C, 30 min; settings: protein: recombinant; tags: Fc (IgG1); chain copies: 2; label: 32P (dotblot)
[4] = biological target: T1, human c-Met-Fc (c-Met ectodomain, …); test: competition; vs 32P-CLN3-T; Dotblot: nitrocellulose filter, 37 C (competition, 30 min); BLI: DPBS, 37 C, Protein A tips, 1:1 fit; ELISA: PBS/1% BSA; flow cytometry: PBS/1% BSA, 4 C, 30 min; settings: protein: recombinant; tags: Fc (IgG1); chain copies: 2

T1 sequence (P08581 25-932): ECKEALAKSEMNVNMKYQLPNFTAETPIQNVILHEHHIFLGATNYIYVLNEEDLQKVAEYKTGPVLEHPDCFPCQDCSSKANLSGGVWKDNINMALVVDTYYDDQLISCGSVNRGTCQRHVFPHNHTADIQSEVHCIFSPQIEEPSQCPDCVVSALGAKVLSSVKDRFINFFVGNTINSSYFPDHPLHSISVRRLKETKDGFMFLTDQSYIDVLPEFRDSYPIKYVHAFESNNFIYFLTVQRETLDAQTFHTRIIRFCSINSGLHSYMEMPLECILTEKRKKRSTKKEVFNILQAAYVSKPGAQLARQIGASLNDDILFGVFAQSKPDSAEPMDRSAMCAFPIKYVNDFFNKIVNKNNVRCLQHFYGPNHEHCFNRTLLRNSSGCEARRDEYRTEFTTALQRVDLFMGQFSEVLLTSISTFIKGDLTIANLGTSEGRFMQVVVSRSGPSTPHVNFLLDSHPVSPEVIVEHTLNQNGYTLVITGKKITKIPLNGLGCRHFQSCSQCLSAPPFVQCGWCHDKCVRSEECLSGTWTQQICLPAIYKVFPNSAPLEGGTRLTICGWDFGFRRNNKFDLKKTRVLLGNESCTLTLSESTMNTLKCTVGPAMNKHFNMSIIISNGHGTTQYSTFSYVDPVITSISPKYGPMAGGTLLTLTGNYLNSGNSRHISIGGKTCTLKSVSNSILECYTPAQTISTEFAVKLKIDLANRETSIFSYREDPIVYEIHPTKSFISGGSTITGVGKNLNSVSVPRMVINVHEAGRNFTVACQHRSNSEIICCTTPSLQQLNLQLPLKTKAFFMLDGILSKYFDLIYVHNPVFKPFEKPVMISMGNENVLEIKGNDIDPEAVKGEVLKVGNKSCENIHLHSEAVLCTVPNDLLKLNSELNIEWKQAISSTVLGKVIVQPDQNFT

B1: CLN-F (XNA)
DNA: GGAGGGAAAAGTTATCAGGCCGCTAGTTACCAGGTGTAGCTGACCAAGCGGATGTGTGTTGATTAGTTTTGGAGTACTCGCTCC
modifications: 2'-O-methyl purines and 2'-fluoro pyrimidines (mRfY)
Question: Does B1 bind [1]?
Answer: Result: no binding

B2: CLN3-T (SL1) (ssDNA)
DNA: GAAAAGTTATCAGGCTGGATGGTAGCTCGGTCGGGGTGGGTGGGTTGGCAAGTCTGATT
Question: Which Kd [2] does the source give for B2 here?
Answer: Its Kd is 0.1 nM.

Question: What about the IC50 [3] of the same binder?
Answer: Its IC50 is 74 nM.

B3: CLN-X (ssDNA)
DNA: GGAGGGAAAAGTTATCAGGCATGCGCTAGCCGATCGAATCCCGTAGACATTCCGATCGACGATTAGTTTTGGAGTACTCGCTCC
Question: Does B3 bind [4]?
Answer: Result: no binding
